Substrate in the series: CNC(=O)Oc1ccc2[nH]cc(CCNC(C)=O)c2c1
Put plainly: MTase-Glo bioluminescence assay. The class given is biochemical, Streptomyces griseofuscus. The following applies: […] SAM; optimized conditions ([…] °C, pH […] KPi stated as optimum).

From PMC8596708 come the findings set out here.

A word on the Km: it is the concentration of substrate that gives half-maximal velocity.

B1: PsmD (Streptomyces griseofuscus) (protein)
chain: MMQGQPHQDAGMPEPYAATADVYDRLVDYAIAEWGECPRPQMADFVEQAWAARGHRVRRVLELCCGTGLMTEQLVRRGYEVTAVDRSETMLALAKQRVGGAADFHQIELPAPLPDGADAVVCTAAAFNYQASARSLGETLRAVATVLPAGATFVFDIETAALLKGHWGNRVWAADEGDLAFIWDFTSEPDTTYCDVHYTQFTRHEAGADAYTGVREVHRLYAFDHDTVRAQARAAGFAQAEVFDNYTERPATDTTRYETWVLTRDER
As for B1, the Km came out at 11.3 µM.
